According to a protein production outcome set (Wang et al. 2014):

Experiment: label from the status in PepcDB records

| Sequence | protein production |
| --- | --- |
| MPEIHQSIAQHYHERTKYDPETIASKSQRLDWAKQPVPFKEYKIGSAIDLKPYLQETPEVFVNDTNGQWWQRLSRLLFRSYGLTARMPSMGNTVYLRAAPSAGGLYPAEVYVVSRGTPLLSPGLYNYQCRTHSLIHYWESDVWQSLQEACFWHPALESTQLAIIVTAVFYRSAWRYEDRAYRRICLDTGHLLGNIELSAAITDYRPHLIGGFIDEAVNDLLYIDPLQEGAIAVLPLADLLDIQQNISPGCTALPSATETNYPQVPDGELLKYFHHHTQISASITGKLNLPTVIQEKSLEDKYNFPFCLKISTVSAPIYWGENLSDLEITMHKRRSTRAYNGEELTFDELKALLDFTYQPQNYIDQSLDNSPDYFDLNLIETFIAVCGVQGLEAGCYYYAPKAQELRQIRFKNFRRELHFLCLGQELGRDAAAVIFHTSDLKSAIAQYGDRVYRYLHMDAGHLGQRLNLAAIQLNLGVSGIGGFFDDQVNEVLGIPNDEAVIYITTLGRPR | not failed |
| MTKITLSPQNFRIQKQETTLLKEKSTEKNSLAKSILAVKNHFIELRSKLSERFISHKNTESSATHFHRGSASEGRAVLTNKVVKDFMLQTLNDIDIRGSASKDPAYASQTREAILSAVYSKNKDQCCNLLISKGINIAPFLQEIGEAAKNVGLPGTTKNDVFTPSGAGANPFITPLISSANSKYPRMFINQHQQASFKIYAEKIIMTEVAPLFNECAMPTPQQFQLILENIANKYIQYTP | failed |
| MKTLLIIAHAPSENTKLMAEAVLKGAQHPDIEQVQTRWVRPLEATPEDVLSCDGIIMGTTENLGYMSGALKDFFDRCYYPCLEVKQGLPCALYVRAGNDGTGTCRAVETICTGLRWNWIQPPLVCRGDWQTLFIEQCEELGMTMAAGLDVGIY | failed |
| MNSLPGSIQTSRTNQQRPLISVIVPAYNAEDFILEALRSITAQDYEPLEILLVDDGSTDGTADLVRREMPTVRIIRQDNTGVAEARNTGLRNACGEFICLLDADDGWCPGKLHAQVQYLQQHPQTGAVYHAWQVWRPDAEGNFVSMPAPVVADSTAIDPALSGWIYPQLLMDCIVHTSTIMMRREFVEQLGFFRAELINGEDYDYWLRLSRLTRIDKLVGVYSFYRGSPGSLTNSVKPVNYEYNVVSAAAAKWGLAAPDGRALAAVDFQRRLGKLAFDFAYRHYRWGSARIARRAALQAWRHDPRRYKALLFWLASFFKREPRSAVQG | failed |
| RRAKALLDFERHDDDELGFRKNDIITIISQKDEHCWVGELNGLRGWFPAKFVEVLDERSKEYSIA | not failed |
| MALFKRSSASAKGFDWMGLLWLFLFFWYFSGITQLLIQLTDTSGFTGFRQAFFMSAIWLAPMLLFPARTKVMAAVIGVVLWACSMASLGYFFVYQQEFSQSVIFIMFESNPSEAGEYLTQYFAWWMLLAFLAHSAFAFFLWTRLRPVYLPRGQALVAATAILVAIVGYPLVKQISRADTLAAGLEKFETRIEPAVPWQMVIAYRRYREQLDGMQGMLASASKIAPLTNLKDSMANQPATLVLVIGESTNRQRMSLYGYPRQTTPELDKLKDQLAIFNNVITPRPYTIEALQQVLTFADEENPDLYLKSPSLVSVMKQAGYKTYWITNQQTMTKRNTMLTTFSEQADEQVYLNNNRNQNARQYDGDVLEPFSKALADSAPRKFIVVHLLGTHMSYQYRYPPSFDKFNDRQGVPAGVRDDQLPTYNSYDNAVLYNDFVVSNLIKNYAKTDPNGFLLYLSDHGEDVFDSAGHDTLGRNEARPTAPMYTIPFMAWASPKWRETHDWSFASDLSRPYMSSQLIHTWADLAGLSFDELDHSRSLVSDSFKPRPLLIGDPYSRQSKPLIDFSLMKPKAPVEATVVQK | failed |
| MKLITKEVRIGIAGVAALCLLVFGINYLKGINMFKPASYFYVKFHNVNGLAQSSPVFADGVRVGIVRDIAYDYNQPENVIVEVEVDTDLRIPKGSSAELVPELMGGVRMNILLANNPRERYTVGDTIPGTLNNGMMEKVAAMMPAVEKMLPKLDSILTSLNTIMADQSIPATLHSIEKTTANLEVTSRQLKVLMNNDIPQLTGKLNTIGDNFVVISGNLKEIDYAATFKKIDTTLSNVKMLTEKLNSKDNTVGLLLNDPQLYNNLNQTTINAANLLEDLKEHPKRYVHFSLFGKKDKLEHHHHHH | failed |
| MDTVWMEIWTTVRNEFADIPDVAEATRIVLRLGMAVALGGLLGYERERSGKAAGLRTHMLVALGAALFVLVPLQGGMEVGDLSRVLQGVIAGIGFLGAGAIIKLGNEGEIRGLTTSAGIWLTAAIGVAAGMGREATALASTLIALFVLAALRHLEKRIAARDDKRVVAQPPP | failed |
| PGYTLTRELPLTEYRALYRAAEDTWAARLDWSPEQYDAHFAREDVRLLALRDSEGRPVAFAELELCAPDSRAELTHLAVHPAQRGQGLGRALLALAAAEAAQSPEIRTLRARAHDHMSAARQLYARAGLSHCRAVVTSLREG | failed |
| MEIINLTYIPLGVYNYYKSNNQEVKMQTIDISELELLTESENPVIVDVREDFEYNSGHVPNAKNIPLSQLEERYAEITDGTYLICQSGARSARACQYLSTKGIDTINISGGTIAWNGP | failed |
| MKSQWECFLQNLGVWEGSFSNFSPEGTLLNDTSSRLCLEGLNNNQTVRLTLSRSGKDDVIREFRSVGGGLLFFENGSFSEGLIQLGPFSEFGGELAFVHENRRLRLVQLFDRNGHLNGLTLIREHLAGTPVAERPLLQINDLLGEWRGQAVTIYRDLRPPDIYSTTLKIQLDDAGRLMQSTSFGERTITSTATIKGSIVLFDQDPEKQVQVLLLPDGASATSPLKVQLRQPLFLEAGWLIQSDLRQRMIRSYNDKGEWVSLTLVTEERV | not failed |
| MMVKDGLRYWPLGMAFLLGVGLQPVRAAEMFLPPTGLAQEELIALTEVDSLAQARLPQSEGSAIDLLPLPPQPTAAVDPPREAPASLPTTIEVKGDSPAPPVEPSPPTTDNSPGVPTTPQLAAEQAVQEARLALLREGDRYWQLGDLTTARTYYQKAKADLNVPPPHVIPPAVLEISQLPPAAQVYWREVQSGSQLYTAQAVPLQLLVEQFPEFIPAQVRFGEFLAQQGSLKEACAHLEKAASLYPDQPDIQRGLITLYDRQQQWLEAALAAQRFALLNPDHPATPEFEQLAAERMQRFRRRLQGQLREGMVVGALTGLVGVALTGNPLLSLDSIQMMTLMMQGESALGRSAARNISRQVKLLEDAAVQTYVNEVGQRLAKVAGRNEFAYEFFVIKDNDLNAFALPGGKIFVNSGAILKASTEAELAGLLAHEIAHTVLSHGFRLMTQGTATANLTRLLPAGGYVTGIVVTSYSREMEREADILGTQILARAGYAADGLLNLMHTLKKEYRNQEPPLPWFSTHPPTNERIRYIRGLMRDRGYTPFAFEGLERHQRIQAHLRTLVDPPNAPKSKRETAKTPQ | failed |
| MTFLDKIKQGCLDGWAKYKILPSLTAAQTILESGWGKHAPHNALFGIKADSSWTGKSFDTKTQEEYQAGVVTDIVDRFRAYDSWTDSIIDHGKFLNDNPRYQAVIGETDYKKACHAIKDAGYATASGYAELLIQLIEENDLQEWDEEAIVRKEKQMISSQCREVIEFFINLVNAGVGVDKDGFAGWQCTDVPCYAAKHWFGVDLWGNAIDLLDSAAAVGWEVHRMPTDANPQTGAFFVQSVPYHQFGHTGVVIEDSDGYTMRTIEQNIDGNPDALYVGAPARFNTRDFTGVTGWFYPPYQGDIVTQPVSTEPQTSDTIVETAKTGTFTLDVAEINIRRWPSLTSEVVGSYKQGDTISFDSEGYANGYYWISYVGGSGMRNYTAIGITDKDGNIISLWGKLNLEHHHHHH | not failed |
| MPRTQKNDNFVDKSFTVMADIILKILPTNKKAKEAFVYYRDGMSAQAEGEYAEALEYYEEALTLEEDTNDRGYILYNMGLIYASNGDHDKALELYHQAIELNPRLPQALNNIAVIYHYQGEKAKETGDHDGGEALFDQAADYWIRAIRMAPNNYIEAQNWLKTTGRMQIDVFF | failed |
| MYHGMNPSNGDGFLEQQQQQQQPQSPQRLLAVILWFQLALCFGPAQLTGGFDDLQVCADPGIPENGFRTPSGGVFFEGSVARFHCQDGFKLKGATKRLCLKHFNGTLGWIPSDNSICVQEDCRIPQIEDAEIHNKTYRHGEKLIITCHEGFKIRYPDLHNMVSLCRDDGTWNNLPICQGCLRPLASSNGYVNISELQTSFPVGTVISYRCFPGFKLDGSAYLECLQNLIWSSSPPRCLALEAQVCPLPPMVSHGDFVCHPRPCERYNHGTVVEFYCDPGYSLTSDYKYITCQYGEWFPSYQVYCIKSEQTWPSTHETLLTTWKIVAFTATSVLLVLLLVILARMFQTKFKAHFPPRGPPRSSSSDPDFVVVDGVPVMLPSYDEAVSGGLSALGPGYMASVGQGCPLPVDDQSPPAYPGSGDTDTGPGESETCDSVSGSSELLQSLYSPPRCQESTHPASDNPDIIASTAEEVASTSPGIDIADEIPLMEEDP | failed |
| MAAVVAATALKSRGARNARVLRGILAGATANKVSHNRTRALQSHSSSEGKEEPEPLSPELEYIPRKRGKNPMKAVGLAWYSLYTRTWLGYLFYRQQLRRARNRYPKGHSKTQPRLFNGVKVLPIPVLSDNYSYLIIDTQAQLAVAVDPSDPRAVQASIEKEGVTLVAILCTHKHWDHSGGNRDLSRRHRDCRVYGSPQDGIPYLTHPLCHQDVVSVGRLQIRALATPGHTQGHLVYLLDGEPYKGPSCLFSGDLLFLSGCGRTFEGNAETMLSSLDTVLGLGDDTLLWPGHEYAEENLGFAGVVEPENLARERKMQWVQRQRLERKGTCPSTLGEERSYNPFLRTHCLALQEALGPGPGPTGDDDYSRAQLLEELRRLKDMHKSK | failed |
| MLVLDVAARVWPFFLLVAAGVALSRLRLLDARMTQGLSAYVYWVGFPALLIHSLSRLGRPGPELWSGLAAYAAVGLAVMASLVVGGRALGWSRPERAGAAMAAGVGNSAFLAVPVTAAVLGAETARLVAGAIAADFVVLAAAGVGLLGWAAGRSVWRAMAQAFQNPVVIAALLGLLLALLNLALPQPLDRAVGLAAASGSPVGLVALGAALGLPQTEDEPGPRAGPVVLAALAKLLAFPLLVWLAIGLTPAPAEFRTGATLVAAAPTAVNVFIQTRAYGVWPRGAARIVALTTALAIVSLSLVAILLTARVS | failed |
| MATKHEQILTYIDSLPVGEKISVRRIAKEMKVSEGTAYRAIKEAENKGFVSTIERVGTIRIEQKKKENIEKLTYAEVVNVIDGQVLGGRAGLHKTLNKFVIGAMELDAMMRYTAAGNLLIVGNRINAHRQALEAGAAVLVTGGFNTDDSIVQLADELELPILSTSYDTFTVAAMINRAIYDQLIKKEIVLVEDILTPADRTVYLSPKDKLEKWYEKNFETGHGRFPVVDDQMKIHGILTSKDIAGHDRNASIEKVMTKNPVTVIGKTSVASAAQMMVWEGIEVLPVTDGHQKLIGMISRQDVLKALQMIQKQPQVGEKLDDIVSRGFKDEGDDKEDQTVYEYEVTPQMTNQLGTISYGVFTTILTQAANRFLRSKKRGELVIESITIFFLKPVQMESVIEVKPRILEAGRKFGKMEVEVHSQGHIVSKAMLMVQLMERS | failed |
| MKIVGIYLAAGKSRRTGPGLHKLYLPTGNTLLGNKALHTSLSSNLSDVIVVSNQPSWLLHYTQVERVHILSCEKSCLGQSYSLHCGLEKAESMNADGVVVMLADQPFITVKLLNSLIDSYEHLPQLDYVAASFQGIPQPPILFSKGIFPSLKKLKGDQGARSIFFDKSFQGKITVYSDAKLFYDVNTIEDYNVIKNSLLLEHHHHHH | failed |
| MHVFYSEERRGNLLILREGEVKHFRVRRIEKDEEFGVIHEGKIYVCKVRREDKREISCEIVEELETKLPPKDITLYQSVTVDLKTMDTIVRQATELGVLTFVPIISERSFQKEEAILKKTEKWKRIVIEAMKQSRRPIPMEIKKPVRLSDLIPESEENIILDNFYEGVKPKDVNLEAKTYSVVVGPEGGFSKRESQILREKGFKSVLLEPYTLRTETAVVSIVSILMNF | not failed |
